Measurements from publication PMC6423285.

What was measured:
NBS1 = NBS1 (UniProt O60934); experiment: peptide-bead pull-down from cell lysate; details: reference: non-phospho peptide …; sites S462
NBS1 FHA+BRCT1/2 = NBS1 FHA+BRCT1/2 (UniProt O60934); experiment: peptide-bead pull-down of purified GST fusion; details: reference: non-phospho peptide …; sites S462

## UFL1 (from UniProt O94874) pS462 peptide
NBS1
  binding against the reference: stronger
NBS1 FHA+BRCT1/2
  binding against the reference: stronger
